Data published in patent publication US20110229475A1 (GlaxoSmithKline, published 2011).

Target: T1, human IL-8 (human, UniProt P10145 28-99, limits assumed)
T1 construct: also called hIL-8; hIL8
Assay: TRFIA, chemokine coated on plate, biotinylated anti-mouse IgG and streptavidin-europium detection
Method: Briefly, each antigen (human IL-8, Gro-alpha, Gro-beta, Gro-gamma, GCP-2, and ENA-78, and hIL-18 when used as negative control) is individually coated onto a 96-well immunofluorescent plate. The plates are then washed and blocked with a commercially available blocking solution. Blocking solution is emptied and samples containing the mAb are added into each well and incubated for 40 to 60 minutes (this allows the mAb to bind to the target chemokines). The plates are then washed again and a detection Ab is added to each well. […] The detection antibody is conjugated to either europium or biotin. Following another round of washing, to remove unbound detection Ab, a solution of streptavidin-europium was added to biotin detected assays. Streptavidin-europium binds to the biotin allowing for detection. After a final wash to remove unbound streptavidin-europium, or in the case of the humanized MAb assay after the europium conjugate secondary is washed, each well is filled with a chelating detergent solution to activate the europium producing fluorescence. The greater the fluorescence recorded is directly proportionate to the amount of detection Ab present in the well which is directly linked and proportionate to the amount of the chemokine binding mAb.

B1: mouse monoclonal antibody 656.35 (antibody, IgG2a, V domains shown)
VH: QVQLQQSGAELVRPGTSVTISCKASGYTFTNYWIVWVKQRPGHGLEWIGDLYSGGGYTFYSENFKGKATLTADTSSSTAYMHLISLTSEDSAVYFCARSGYDRTWFAHWGQGSLVTVSA
VL: DIKMTQSPSSMSASLGERVTITCQASQDIESYLSWYQQKPWKSPKTLIYYATRLADGVPSRFSGSGSGQDYSLTISSLESDDTATYYCLQHGESPPTFGAGTKLELKR
notes: Murine hybridoma antibody; also called 2x656.35
- EC50 (read off the curve): ~0.04 µg/mL
